These results are taken from patent US6348573B1, “Compositions and methods for identifying apoptosis signaling pathway inhibitors and activators” (The Regents of the University of Michigan, priority 1998, dated 2002).

One experiment has as its target T1, caspase-3 (Homo sapiens, UniProt P42574).
T1 construct: expressed in transfected cells; host or cells: human 293T cells
T1 sequence (P42574 29-277): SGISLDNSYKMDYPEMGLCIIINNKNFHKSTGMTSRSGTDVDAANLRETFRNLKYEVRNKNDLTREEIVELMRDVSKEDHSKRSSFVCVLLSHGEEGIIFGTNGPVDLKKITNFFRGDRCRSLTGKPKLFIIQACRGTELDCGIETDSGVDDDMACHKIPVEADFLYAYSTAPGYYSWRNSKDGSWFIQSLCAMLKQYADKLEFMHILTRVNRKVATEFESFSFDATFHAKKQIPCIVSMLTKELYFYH
Kind of experiment: Co-immunoprecipitation of ARC with caspase-3. It is filed as binding. The settings on record: 293T lysates. On the procedure: Briefly, 2 μg of pcDNA3 or pcDNA3-ARC-Flag or -HA was co-transfected with 3 μg of pcDNA3 or caspase expression plasmids. Total amount of transfected plasmid DNA was always 5 μg. 293T cells were harvested after 22 hr and lysed with 0.2% NP-40 isotonic lysis buffer [Z. N. Oltvai et al., Cell 74:609-619 (1993)]. For immunoprecipitation, […] of soluble protein was incubated with 10 μg/ml of polyclonal anti-Flag, monoclonal anti-AU1 or polyclonal anti-HA antibody for 2 hr at 4° C. and tagged proteins were immunoprecipitated with Protein A-Sepharose 4B (Zymed Laboratories Inc., San Francisco, Calif.). Immunoprecipitates were subjected to 12% SDS-polyacrylamide electrophoresis and immunoblotted with anti-Flag, anti-AU1 or anti-HA antibodies.

In experiment [1] the target is T2, C-caspase-8-HA (human caspase-8 amino acids 216-496, C-terminal HA tag) (human, UniProt Q14790-4 216-496).
T2 construct: range 216-496; The canonical UniProt entry has 479 residues; also called pcDNA3-C-caspase-8-HA; C-terminal region that contains the catalytic domain of caspase-8; not shown: C-terminal HA tag
T2 sequence (Q14790 199-479 limits assumed): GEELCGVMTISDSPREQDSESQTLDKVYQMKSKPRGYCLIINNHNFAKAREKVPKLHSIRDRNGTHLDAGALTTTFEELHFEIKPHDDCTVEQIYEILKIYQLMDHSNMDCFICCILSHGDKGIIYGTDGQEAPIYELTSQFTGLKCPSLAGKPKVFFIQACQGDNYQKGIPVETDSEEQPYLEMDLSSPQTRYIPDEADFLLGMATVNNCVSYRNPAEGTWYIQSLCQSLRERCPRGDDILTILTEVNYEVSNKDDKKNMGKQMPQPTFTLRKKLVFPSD
Kind of experiment: co-immunoprecipitation of caspase-8 deletion mutants from 293T cells, immunoblot.

For another experiment, the target named is T3, caspase-8 (Homo sapiens, UniProt Q14790).
T3 construct: expressed in transfected cells; host or cells: human 293T cells
T3 sequence (Q14790 1-496 isoform Q14790-4): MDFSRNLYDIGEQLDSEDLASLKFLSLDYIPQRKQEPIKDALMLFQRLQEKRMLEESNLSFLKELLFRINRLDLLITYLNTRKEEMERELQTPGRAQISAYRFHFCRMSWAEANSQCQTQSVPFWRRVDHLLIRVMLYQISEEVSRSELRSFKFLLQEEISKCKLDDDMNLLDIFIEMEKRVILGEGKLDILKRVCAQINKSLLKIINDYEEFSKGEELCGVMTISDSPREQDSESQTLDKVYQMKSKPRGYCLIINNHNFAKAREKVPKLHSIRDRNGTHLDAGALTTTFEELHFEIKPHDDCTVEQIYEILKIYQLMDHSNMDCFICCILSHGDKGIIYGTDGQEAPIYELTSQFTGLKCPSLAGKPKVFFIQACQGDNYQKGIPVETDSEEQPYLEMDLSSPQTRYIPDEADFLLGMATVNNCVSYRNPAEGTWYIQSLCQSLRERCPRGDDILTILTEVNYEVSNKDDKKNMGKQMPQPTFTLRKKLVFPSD
Kind of experiment: Caspase-8 enzymatic assay (DEVD-AMC) on immunoprecipitates of ARC co-transfected cells. The experiment is classed as biochemical. The settings on record: immunoprecipitated caspase-8 from 293T cells, fluorogenic substrate DEVD-AMC. The protocol:
[293T cell were co-transfected with pcDNA3-caspase-8-AU1 or pcDNA3-caspase-8-mut and pcDNA3-ARC-Flag or pcDNA3]. Caspase-8 in cell extracts was immunoprecipitated with anti-AU1 antibody and immunoprecipitates were incubated with the fluorogenic substrate DEVD-AMC. ◯:pcDNA3 alone; ●:pcDNA3-ARC-HA alone; □:pcDNA3-caspase-8-AU1 alone; ▪:pcDNA3-caspase-8-AU1 and pcDNA3-ARC-HA; ^Δ:pcDNA3-caspase-8-mt-AU1 alone.
β-galactosidase apoptosis assay and Caspase-8 enzymatic assay: 5×10^5 293T cells were transfected with 0.3 μg of pcDNA3-β-gal plus each expression plasmid in triplicate. Cells were fixed 16 hrs after transfection, stained for β-galactosidase and assayed for morphological features of apoptosis [M. Muira et al., Cell 75:653-660 (1993)]. Statistical significance was determined by one-way ANOVA followed by Student-Neuman-Keuls post-doc comparisons. For caspase-8 enzymatic assay, 1.5×10^6 human 293T cells were co-transfected with pcDNA3, pcDNA3-ARC-Flag, pcDNA3-caspase-8 and pcDNA3-caspase-8-mt by a calcium phosphate method. Total amount of transfected plasmid DNA was always 2.5 μg. 293T cells were harvested 18hr after transfection and lysed with 0.2% NP-40 isotonic lysis buffer. Tagged proteins were immunoprecipitated and caspase activity was measured as described [N. Inohara et al., Proc. Natl. Acad. Sci. USA 94:10717-10722 (1997)].

In experiment [2] the target is T4, caspase-9, Flag-tagged (pcDNA3-caspase-9-Flag) (UniProt P55211 1-416).
T4 construct: not shown: Flag tag
T4 sequence (looked up): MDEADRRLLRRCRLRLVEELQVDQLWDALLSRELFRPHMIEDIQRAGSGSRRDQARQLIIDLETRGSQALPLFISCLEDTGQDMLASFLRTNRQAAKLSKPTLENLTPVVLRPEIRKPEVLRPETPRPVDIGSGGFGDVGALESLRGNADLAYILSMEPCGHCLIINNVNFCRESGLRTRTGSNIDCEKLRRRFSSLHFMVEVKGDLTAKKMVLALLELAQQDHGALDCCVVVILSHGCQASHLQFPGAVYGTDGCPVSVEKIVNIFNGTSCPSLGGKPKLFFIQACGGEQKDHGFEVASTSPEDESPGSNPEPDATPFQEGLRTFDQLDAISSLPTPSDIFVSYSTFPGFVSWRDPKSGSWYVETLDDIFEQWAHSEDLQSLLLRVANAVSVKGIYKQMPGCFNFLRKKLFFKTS
The experiment can be described thus: co-immunoprecipitation from co-transfected 293T cells, immunoblot.

For experiment [3], the target named is T5, caspase-1, epitope-tagged (human, UniProt P29466 1-404).
T5 construct: also called pcDNA3-caspase-1-Flag
T5 sequence: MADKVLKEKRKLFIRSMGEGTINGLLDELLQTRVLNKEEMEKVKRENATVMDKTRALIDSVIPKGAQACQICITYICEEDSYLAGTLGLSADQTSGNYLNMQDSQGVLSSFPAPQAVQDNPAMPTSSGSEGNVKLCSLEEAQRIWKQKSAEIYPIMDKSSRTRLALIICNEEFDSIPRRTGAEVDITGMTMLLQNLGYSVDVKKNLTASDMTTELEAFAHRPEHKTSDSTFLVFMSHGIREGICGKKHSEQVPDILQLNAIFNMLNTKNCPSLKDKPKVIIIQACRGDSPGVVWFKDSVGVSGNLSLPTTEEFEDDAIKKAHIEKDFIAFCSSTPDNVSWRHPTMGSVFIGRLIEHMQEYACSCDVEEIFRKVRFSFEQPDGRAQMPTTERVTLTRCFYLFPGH
The description is as above.

The target of experiment [4] is T6, caspase-3, epitope-tagged (UniProt P42574 1-277).
T6 construct: also called pcDNA3-caspase-3-Flag; not shown: position and
T6 sequence (looked up): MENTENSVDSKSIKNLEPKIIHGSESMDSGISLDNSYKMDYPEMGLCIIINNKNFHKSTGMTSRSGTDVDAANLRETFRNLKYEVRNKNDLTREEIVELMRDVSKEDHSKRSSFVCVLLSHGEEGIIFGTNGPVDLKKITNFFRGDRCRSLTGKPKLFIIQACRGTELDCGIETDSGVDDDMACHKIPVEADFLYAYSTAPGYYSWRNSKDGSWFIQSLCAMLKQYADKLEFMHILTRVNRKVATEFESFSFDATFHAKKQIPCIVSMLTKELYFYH
The experiment is described as above.

B1: human ARC (Apoptosis Repressor with CARD domain), C-terminally Flag- or HA-tagged (other)
chain: MGNAQERPSETIDRERKRLVETLQADSGLLLDALLARGVLTGPEYEALDALPDAERRVRRLLLLVQGKGEAACQELLRCAQRTAGAPDPAWDWQHVGPGYRDRSYDPPCPGHWTPEAPGSGTTCPGLPRASDPDEAGGPEGSEAVQSGTPEEPEPELEAEASKEAEPEPEPEPELEPEAEAEPEPELEPEPDPEPEPDFEERDESEDS
notes: Entire open reading frame expressed in 293T cells; The two tagged constructs are merged here; also called ARC-Flag; ARC-HA; not shown: C-terminal FLAG or HA tag
Regarding B1, the “co-immunoprecipitation with caspase-3” value in the experiment with caspase-3 is listed as “not”. Also, the binding result in experiment [1], in experiment [2], in experiment [3] and in experiment [4] was “no binding” in each case. Also, the “enzymatic activity of caspase-8” value in the experiment with caspase-8 is listed as “inhibited”.
